The values that follow come from patent publication US20210113615A1 (LUDWIG INSTITUTE FOR CANCER RESEARCH, published 2021).

Read-outs that look alike come from different tables or passages of the source.

Assay [1] concerns the target T1, Bcl-XL (B-cell lymphoma-extra-large), wildtype sequence as tested (human, UniProt Q07817 1-209).
T1 construct: It is shorter than full-length Bcl-xL: E96 of the wildtype numbering stands at position 56; Bcl-XL was immobilized in SPR; also called Protein B
The assay can be described thus: SPR, Biacore 8K; Bcl-xL immobilized, Des3 variant injected in serial dilutions. The protocol: (§1) Affinity (nM) values were calculated by Surface plasmon resonance (SPR) data on a Biacore 8K device.
(Surface plasmon resonance follows binding to a sensor surface in real time, without labels.)

Assay [2] has as its target T2, Bcl-2 (BCL-2 sequence as tested in Example 5) (Homo sapiens (Human), UniProt P10415 1-207).
T2 construct: It was immobilized in SPR
In words: SPR, Biacore 8K; Bcl-2 immobilized, Des3 variant injected in serial dilutions. The method, then:
as §1

The target in assay [3] is T2, Bcl-2 (BCL-2 sequence as tested in …). The assay can be described thus: not stated here (heading in the sequence table); target Bcl-2 (first of the two values, 'respectively').
Assay [4] concerns the target T1, Bcl-XL (B-cell lymphoma-extra-large), …. The assay can be described thus: SPR, LD3:Bcl-XL binding interaction, sensorgrams with fitted curves.
Assay [5] has the same target.
For assay [6] the target is unchanged. The assay can be described thus: method not stated for this value (Example 1); Example 1, binder named 1LE4A; approximate value, method not stated.

The Kd is a measure of binding affinity in units of concentration.

T1 sequence (Q07817 other isoform, or with tags, fused parts or gaps limits assumed): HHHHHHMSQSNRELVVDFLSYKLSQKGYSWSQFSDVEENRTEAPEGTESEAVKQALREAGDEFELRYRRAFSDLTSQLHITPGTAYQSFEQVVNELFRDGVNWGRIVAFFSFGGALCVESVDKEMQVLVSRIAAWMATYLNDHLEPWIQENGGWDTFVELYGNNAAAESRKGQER
T2 sequence (P10415 1-207 limits assumed): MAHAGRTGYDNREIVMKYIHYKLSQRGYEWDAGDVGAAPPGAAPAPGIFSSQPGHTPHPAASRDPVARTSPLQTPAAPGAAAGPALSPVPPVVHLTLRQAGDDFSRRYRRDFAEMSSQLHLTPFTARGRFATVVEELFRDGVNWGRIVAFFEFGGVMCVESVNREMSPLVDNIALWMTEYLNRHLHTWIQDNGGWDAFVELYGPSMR

B1: LD3 (lead design 3: Bcl-XL binder designed on human apolipoprotein E4, PDB ID 1LE4 chain A) (designed binder)
chain: HHHHHHQRWELALGRFLEYLSWVSTLSEQVQEELLSSQVTQELRALMDETMKELKAYKSELEEQLTPVAEETRARLSKELQAAQARLGADMEDVRGRLVQYRGEVQAMLGQSTEELRVRLASHLIALQLRLIGDAFDLQKRLAVYQAGA
notes: No single sentence states these identities; also called Des3; DES3
On to B1, for which the Kd is 0.004 nM in assay [1]; 0.8 nM in assay [2]; 0.8 nM in assay [3]; roughly 0.004 nM in assay [4]; 0.004 nM in assay [5]; roughly 0.4 nM in assay [6].

B2: Des3a (slightly weaker affinity binder, GLU124ALA) (designed binder)
chain: QRWELALGRFLAYLSWVSTLSEQVQEELLSSQVTQELRALMDETMKELKAYKSELEEQLTPVAEETRARLSKELQAAQARLGADMEDVRGRLVQYRGEVQAMLGQSTEELRVRLASHLIALQLRLIGDAFDLQKRLAVYQAGA
B2 displayed a Kd in assay [2] of 16.8 nM. This counts as double-digit nanomolar.

B3: Des3c (weakest affinity Des3 binder, ASP240ALA) (designed binder)
chain: QRWELALGRFLEYLSWVSTLSEQVQEELLSSQVTQELRALMDETMKELKAYKSELEEQLTPVAEETRARLSKELQAAQARLGADMEDVRGRLVQYRGEVQAMLGQSTEELRVRLASHLIALQLRLIGAAFDLQKRLAVYQAGA
In turn, B3 came in with a Kd in assay [2] of 147 nM.

B4: Des3b (medium affinity binder, LEU235ALA) (designed binder)
chain: QRWELALGRFLEYLSWVSTLSEQVQEELLSSQVTQELRALMDETMKELKAYKSELEEQLTPVAEETRARLSKELQAAQARLGADMEDVRGRLVQYRGEVQAMLGQSTEELRVRLASHLIALQARLIGDAFDLQKRLAVYQAGA
B4: in assay [2], the affinity, expressed as Kd, was 64.1 nM.
